# From patent publication US8865654B2, “Eye drops” (Santen Pharmaceutical Co., Ltd., priority 2009, dated 2014)
# No end group written: not given here.
# Assay: Stability test of eye drop (residual ratio by HPLC after storage at 40° C.)
# Assay type: physicochemical
# Settings: eye drop SSSR acetate 0.003% + FGLM hydrochloride 0.05% (w/v)
# Procedure: Each sample (100 mL, eye drop) containing the SSSR acetate at 0.003% (w/v) and the FGLM hydrochloride at 0.05% (w/v) was prepared at a pH in a range of 2.5 to 7.0 and stored at 40° C. The concentrations of the SSSR and the FGLM were measured by the HPLC method after 2 months storage, 3 months storage, and 6 months storage, and the residual ratios of the SSSR and the FGLM were determined, respectively.
substance,measurement,setting,value
"Ser-Ser-Ser-Arg (SSSR; printed: Ser-Ser-Ser-Arg) [partial peptide of insulin-like growth factor I, used as acetate]",Residual ratio of SSSR,"pH 2.5, 40° C., 2 months",100%
same,Residual ratio of SSSR,"pH 2.5, 40° C., 3 months",100%
same,Residual ratio of SSSR,"pH 2.5, 40° C., 6 months",100%
same,Residual ratio of SSSR,"pH 3.0, 40° C., 2 months",99%
same,Residual ratio of SSSR,"pH 3.0, 40° C., 3 months",96%
same,Residual ratio of SSSR,"pH 3.0, 40° C., 6 months",98%
same,Residual ratio of SSSR,"pH 3.5, 40° C., 2 months",99%
same,Residual ratio of SSSR,"pH 3.5, 40° C., 3 months",96%
same,Residual ratio of SSSR,"pH 3.5, 40° C., 6 months",93%
same,Residual ratio of SSSR,"pH 4.0, 40° C., 2 months",98%
same,Residual ratio of SSSR,"pH 4.0, 40° C., 3 months",97%
same,Residual ratio of SSSR,"pH 4.0, 40° C., 6 months",92%
same,Residual ratio of SSSR,"pH 4.5, 40° C., 2 months",97%
same,Residual ratio of SSSR,"pH 4.5, 40° C., 3 months",97%
same,Residual ratio of SSSR,"pH 4.5, 40° C., 6 months",89%
same,Residual ratio of SSSR,"pH 5.0, 40° C., 2 months",97%
same,Residual ratio of SSSR,"pH 5.0, 40° C., 3 months",87%
same,Residual ratio of SSSR,"pH 5.0, 40° C., 6 months",81%
same,Residual ratio of SSSR,"pH 5.5, 40° C., 2 months",94%
same,Residual ratio of SSSR,"pH 5.5, 40° C., 3 months",86%
same,Residual ratio of SSSR,"pH 5.5, 40° C., 6 months",80%
same,Residual ratio of SSSR,"pH 6.0, 40° C., 2 months",90%
same,Residual ratio of SSSR,"pH 6.0, 40° C., 3 months",77%
same,Residual ratio of SSSR,"pH 6.0, 40° C., 6 months",68%
same,Residual ratio of SSSR,"pH 6.5, 40° C., 2 months",84%
same,Residual ratio of SSSR,"pH 6.5, 40° C., 3 months",67%
same,Residual ratio of SSSR,"pH 6.5, 40° C., 6 months",51%
same,Residual ratio of SSSR,"pH 7.0, 40° C., 2 months",70%
same,Residual ratio of SSSR,"pH 7.0, 40° C., 3 months",51%
same,Residual ratio of SSSR,"pH 7.0, 40° C., 6 months",35%
"Phe-Gly-Leu-Met-NH2 (FGLM-NH2) [tetrapeptide at the C-terminal of Substance P, used as hydrochloride]",Residual ratio of FGLM,"pH 2.5, 40° C., 2 months",79%
same,Residual ratio of FGLM,"pH 2.5, 40° C., 3 months",72%
same,Residual ratio of FGLM,"pH 2.5, 40° C., 6 months",54%
same,Residual ratio of FGLM,"pH 3.0, 40° C., 2 months",91%
same,Residual ratio of FGLM,"pH 3.0, 40° C., 3 months",89%
same,Residual ratio of FGLM,"pH 3.0, 40° C., 6 months",79%
same,Residual ratio of FGLM,"pH 3.5, 40° C., 2 months",95%
same,Residual ratio of FGLM,"pH 3.5, 40° C., 3 months",94%
same,Residual ratio of FGLM,"pH 3.5, 40° C., 6 months",90%
same,Residual ratio of FGLM,"pH 4.0, 40° C., 2 months",96%
same,Residual ratio of FGLM,"pH 4.0, 40° C., 3 months",96%
same,Residual ratio of FGLM,"pH 4.0, 40° C., 6 months",94%
same,Residual ratio of FGLM,"pH 4.5, 40° C., 2 months",97%
same,Residual ratio of FGLM,"pH 4.5, 40° C., 3 months",97%
same,Residual ratio of FGLM,"pH 4.5, 40° C., 6 months",96%
same,Residual ratio of FGLM,"pH 5.0, 40° C., 2 months",97%
same,Residual ratio of FGLM,"pH 5.0, 40° C., 3 months",97%
same,Residual ratio of FGLM,"pH 5.0, 40° C., 6 months",97%
same,Residual ratio of FGLM,"pH 5.5, 40° C., 2 months",97%
same,Residual ratio of FGLM,"pH 5.5, 40° C., 3 months",97%
same,Residual ratio of FGLM,"pH 5.5, 40° C., 6 months",96%
same,Residual ratio of FGLM,"pH 6.0, 40° C., 2 months",96%
same,Residual ratio of FGLM,"pH 6.0, 40° C., 3 months",96%
same,Residual ratio of FGLM,"pH 6.0, 40° C., 6 months",95%
same,Residual ratio of FGLM,"pH 6.5, 40° C., 2 months",95%
same,Residual ratio of FGLM,"pH 6.5, 40° C., 3 months",95%
same,Residual ratio of FGLM,"pH 6.5, 40° C., 6 months",93%
same,Residual ratio of FGLM,"pH 7.0, 40° C., 2 months",94%
same,Residual ratio of FGLM,"pH 7.0, 40° C., 3 months",93%
same,Residual ratio of FGLM,"pH 7.0, 40° C., 6 months",90%
